Experimental findings from publication PMC3708822 are described below.

The target of test [1] is GST-INI1 (UniProt Q12824). Put plainly: pull-down; 5 ug GST-INI1 on glutathione sepharose 4B beads incubated 1 hour at 4°C with clarified 293 T whole cell lysates normalized for YFP-IN levels; Western blot, densitometry, binding relative to YFP-WT. (In general: A western blot detects proteins with antibodies after separation by electrophoresis.)
Test [2] has as its target GST-INI1 (UniProt Q12824). Put plainly: pull-down; in vitro binding of His6-IN with GST-INI1; data not shown.
The target of test [3] is GST-SAP18 (UniProt O00422). Put plainly: GST pull-down, Western blot quantitation. To be noted: 5μg of GST-tagged proteins were used for each pull-down reaction; parent: est. 1.0; read off a plot.
The next test has as its target GST-RT (HIV-1 (NL4-3)). As to the kind of experiment: pull-down; 5 ug GST-tagged proteins on glutathione sepharose 4B beads incubated 1 hour at 4°C with normalized clarified bacterial lysates of 6His-IN in 20 mM HEPES-KOH pH 8.0, 5 mM DTT, 0.1% IGEPAL; washes with 200 mM NaCl, 0.5% IGEPAL; Western blot, densitometry relative to WT.
For test [4], the target named is GST-SAP18 (UniProt O00422). The test is described as above.

Sequence of GST-SAP18 (O00422 whole entry): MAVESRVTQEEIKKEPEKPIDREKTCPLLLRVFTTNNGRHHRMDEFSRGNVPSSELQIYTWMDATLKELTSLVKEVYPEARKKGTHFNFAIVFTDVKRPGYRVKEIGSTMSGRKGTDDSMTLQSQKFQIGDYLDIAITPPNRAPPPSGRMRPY
Sequence of GST-INI1 (Q12824 whole entry): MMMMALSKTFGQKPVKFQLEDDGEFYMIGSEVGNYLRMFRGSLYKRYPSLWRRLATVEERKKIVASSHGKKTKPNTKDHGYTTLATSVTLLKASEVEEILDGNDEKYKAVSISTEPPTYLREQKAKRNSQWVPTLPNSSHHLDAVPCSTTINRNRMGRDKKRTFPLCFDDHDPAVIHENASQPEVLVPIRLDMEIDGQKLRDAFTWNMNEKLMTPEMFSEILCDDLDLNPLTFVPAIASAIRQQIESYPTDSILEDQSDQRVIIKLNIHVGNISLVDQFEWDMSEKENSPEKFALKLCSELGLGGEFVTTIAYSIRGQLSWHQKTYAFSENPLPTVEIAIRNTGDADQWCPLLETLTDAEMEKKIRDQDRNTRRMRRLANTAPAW

With YFP-IN K71R (natural protein), in the test with GST-INI1 [1], the % binding to INI1 relative to wild type was 46%.

Turning to His6-tagged IN K111E (natural protein), the % binding compared to His6-WT with GST-INI1 [2] was found to be 60%.

Consider His6-tagged WT IN K71R, for which, in the test with GST-SAP18 [3], the ratio to parent was 1.1.

For the substance His6-tagged WT IN D202G, in the test with GST-SAP18 [3], the ratio to parent is 0.84.

On to YFP-IN S147G (natural protein), for which, in the test with GST-INI1 [1], the % binding to INI1 relative to wild type was determined as 77%.

Substance YFP-WT IN (natural protein) displayed a % binding to INI1 relative to wild type with GST-INI1 [1] of 100%.

On to His6-tagged IN D202G (natural protein), for which the % RT binding compared to WT with GST-RT (HIV-1 (NL4-3)) is 80%.

Regarding YFP-IN D202G (natural protein), the % binding to INI1 relative to wild type with GST-INI1 [1] was 32%.

As to His6-tagged WT IN K111E, the ratio to parent with GST-SAP18 [3] is 1.3.

Turning to His6-tagged IN Q137R (natural protein), the % RT binding compared to WT with GST-RT (HIV-1 (NL4-3)) was found to be 45%. In addition, in the test with GST-SAP18 [4], the fold decrease in binding relative to WT was 4 fold.

For YFP-IN Q137R (natural protein), in the test with GST-INI1 [1], the % binding to INI1 relative to wild type worked out at 10%.

Take YFP-IN H12Y (natural protein): the % binding to INI1 relative to wild type with GST-INI1 [1] is 20.6%.

Consider His6-tagged WT IN S147G, for which the ratio to parent in the test with GST-SAP18 [3] came to 1.
